Results taken from publication PMC4274154, “DEAF1 Binds Unmethylated and Variably Spaced CpG Dinucleotide Motifs”.

T1: DEAF1-FLAG (UniProt O75398 1-565)
T1 sequence: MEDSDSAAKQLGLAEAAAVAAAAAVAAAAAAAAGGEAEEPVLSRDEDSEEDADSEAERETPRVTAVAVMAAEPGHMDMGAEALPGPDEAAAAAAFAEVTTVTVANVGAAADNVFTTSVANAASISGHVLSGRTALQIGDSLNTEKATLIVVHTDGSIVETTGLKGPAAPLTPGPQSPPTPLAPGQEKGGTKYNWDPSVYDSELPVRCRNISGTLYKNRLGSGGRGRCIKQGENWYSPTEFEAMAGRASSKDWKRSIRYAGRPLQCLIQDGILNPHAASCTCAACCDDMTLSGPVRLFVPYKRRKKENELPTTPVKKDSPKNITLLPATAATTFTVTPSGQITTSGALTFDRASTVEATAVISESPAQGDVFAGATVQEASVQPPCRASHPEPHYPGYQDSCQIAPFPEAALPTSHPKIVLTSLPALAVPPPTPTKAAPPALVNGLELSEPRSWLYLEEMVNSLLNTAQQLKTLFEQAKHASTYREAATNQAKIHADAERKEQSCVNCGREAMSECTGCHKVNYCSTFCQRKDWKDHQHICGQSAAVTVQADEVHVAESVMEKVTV

B1: 6-space probe (two TTCGGG motifs) (dsDNA)
DNA 1: TTGAGTTCGGGTGTTCGGGCTCAA
DNA 2: TTGAGCCCGAACACCCGAACTCAA
B2: EIF4G3 promoter probe (dsDNA)
DNA 1: ACTTCGGACTTTTTCGGAAT
DNA 2: ATTCCGAAAAAGTCCGAAGT
B3: 11-space probe (dsDNA)
DNA 1: TTGAGTTCGGGAAAAAACTTCGGGCTCAA
DNA 2: TTGAGCCCGAAGTTTTTTCCCGAACTCAA
B4: 6mut (TTCGGG to AACGCC in both half-sites) (dsDNA)
DNA 1: TTGAGAACGCCTGAACGCCCTCAA
DNA 2: TTGAGGGCGTTCAGGCGTTCTCAA
B5: 8-space probe (two TTCGGG motifs) (dsDNA)
DNA 1: TTGAGTTCGGGAAACTTCGGGCTCAA
DNA 2: TTGAGCCCGAAGTTTCCCGAACTCAA
B6: 8mut (TTCGGG to AACGCC in both half-sites) (dsDNA)
DNA 1: TTGAGAACGCCAAACAACGCCCTCAA
DNA 2: TTGAGGGCGTTGTTTGGCGTTCTCAA
B7: 10-space probe (dsDNA)
DNA 1: TTGAGTTCGGGAAAAACTTCGGGCTCAA
DNA 2: TTGAGCCCGAAGTTTTTCCCGAACTCAA
B8: 6-space methylated probe (dsDNA)
DNA 1: TTGAGTTCGGGTGTTCGGGCTCAA
DNA 2: TTGAGCCCGAACACCCGAACTCAA
modifications: 5-methylcytosine on both strands at the CpG of the second half-site
B9: 9-space probe (dsDNA)
DNA 1: TTGAGTTCGGGAAAACTTCGGGCTCAA
DNA 2: TTGAGCCCGAAGTTTTCCCGAACTCAA

target: T1, DEAF1-FLAG; assay: EMSA; EMSA: 200 ng DEAF1-FLAG, 30 min at room temperature, 1x EMSA binding buffer (composition and pH not given), 1 ug dA:dT, 5% native polyacrylamide gel; settings: protein: recombinant; tags: FLAG; chain copies: 2; label: 32P

Binder	binding result
B1	binds
B2	binds
B3	binds
B4	no binding
B5	binds
B6	no binding
B7	binds
B8	no binding
B9	binds
